Measurements: US20240350653A1 (JOINT STOCK COMPANY GENERIUM, published 2024)

Key:
[1] = molecular target: T1, mouse insulin receptor (mInsR, R&D Systems, Inc., Cat. No. 7544-MR) (mouse, UniProt P15208 28-946, limits assumed); assay: ELISA on mouse insulin receptor
T1 construct: extracellular domain; Bought protein; also called extracellular domain of the mouse insulin receptor

[2] = molecular target: T2, Human Insulin Receptor protein fragment (Abcam cat #ab200510) (human, UniProt P06213-2 28-944, limits assumed); assay: ELISA on human insulin receptor fragment
T2 construct: domain: extracellular domain of the alpha subunit; Bought fragment; also called HIR; extracellular domain of the alpha subunit of the human insulin receptor

[3] = molecular target: T2, Human Insulin Receptor protein fragment …; assay: ELISA on human insulin receptor fragment, relative to 83-14 mAb

Row | Binder | EC50 [1] [mg/L] | Receptor binding, % [1] [%] | EC50 [2] [mg/L] | Receptor binding from antibody 83-14 mAb, % [3] [%]
1 | HIR-FAB-IDS (SEQ ID NO: 2 and SEQ ID NO: 4) (Fab, Fab fragment of an IgG1 antibody to the human insulin receptor, fused to iduronate-2-sulfatase; also called rIDS-FAB-HI; rHI-FAB-IDS) light: DIQMTQSPSSLSASLGERVSLTCRASQDIGGNLYWLQQGPDGTIKRLIYATSSLDSGVPKRFSGSRSGSDYSLTISSLESEDFVDYYCLQYSSSPWTFGGGTKMEIKRTVAAPSVFIFPPSDEQLKSGTASVVCLLNNFYPREAKVQWKVDNALQSGNSQESVTEQDSKDSTYSLSSTLTLSKADYEKHKVYACEVTHQGLSSPVTKSFNRGEC heavy: QVQLQQSGPELVKPGALVKISCKASGYTFTNYDIHWVKQRPGQGLEWIGWIYPGDGSTKYNEKFKGKATLTADKSSSTAYMHLSSLTSEKSAVYFCAREWAYWGQGTLVTVSAASTKGPSVFPLAPSSKSTSGGTAALGCLVKDYFPEPVTVSWNSGALTSGVHTFPAVLQSSGLYSLSSVVTVPSSSLGTQTYICNVNHKPSNTKVDKKVEPKSCDKTHLSSSETQANSTTDALNVLLIIVDDLRPSLGCYGDKLVRSPNIDQLASHSLLFQNAFAQQAVCAPSRVSFLTGRRPDTTRLYDFNSYWRVHAGNFSTIPQYFKENGYVTMSVGKVFHPGISSNHTDDSPYSWSFPPYHPSSEKYENTKTCRGPDGELHANLLCPVDVLDVPEGTLPDKQSTEQAIQLLEKMKTSASPFFLAVGYHKPHIPFRYPKEFQKLYPLENITLAPDPEVPDGLPPVAYNPWMDIRQREDVQALNISVPYGPIPVDFQRKIRQSYFASVSYLDTQVGRLLSALDDLQLANSTIIAFTSDHGWALGEHGEWAKYSNFDVATHVPLIFYVPGRTASLPEAGEKLFPYLDPFDSASQLMEPGRQSMDLVELVSLFPTLAGLAGLQVPPRCPVPSFHVELCREGKNLLKHFRFRDLEEDPYLPGNPRELIAYSQYPRPSDIPQWNSDKPSLKDIKIMGYSIRTIDYRYTVWVGFNPDEFLANFSDIHAGELYFVDSDPLQDHNMYNDSQGGDLFQLLMP | > 0.8 | 0 | 0.0243 | 136
2 | HIR-FAB-IDS (SEQ ID NO: 8 and SEQ ID NO: 12) (Fab, Variant of the Fab-iduronate-2-sulfatase fusion) light: DIQMTQSPSSLSASVGDRVTITCRASQDIGGNLYWYQQKPGKAPKLLIYATSSLDSGVPSRFSGSGSGTDFTLTISSLQPEDVATYYCLQYSSSPWTFGQGTKVEIKRTVAAPSVFIFPPSDEQLKSGTASVVCLLNNFYPREAKVQWKVDNALQSGNSQESVTEQDSKDSTYSLSSTLTLSKADYEKHKVYACEVTHQGLSSPVTKSFNRGEC heavy: EVQLVESGGGLVQPGRSLRLSCAASGFTFTNYDIHWVRQAPGKGLEWVSWIYPGDGSTKYNEKFKGRFTISRDNAKNSLYLQMNSLRAEDTAVYYCAKEWAYWGQGTLVTVSSASTKGPSVFPLAPSSKSTSGGTAALGCLVKDYFPEPVTVSWNSGALTSGVHTFPAVLQSSGLYSLSSVVTVPSSSLGTQTYICNVNHKPSNTKVDKKVEPKSCDKTHLSSSETQANSTTDALNVLLIIVDDLRPSLGCYGDKLVRSPNIDQLASHSLLFQNAFAQQAVCAPSRVSFLTGRRPDTTRLYDFNSYWRVHAGNFSTIPQYFKENGYVTMSVGKVFHPGISSNHTDDSPYSWSFPPYHPSSEKYENTKTCRGPDGELHANLLCPVDVLDVPEGTLPDKQSTEQAIQLLEKMKTSASPFFLAVGYHKPHIPFRYPKEFQKLYPLENITLAPDPEVPDGLPPVAYNPWMDIRQREDVQALNISVPYGPIPVDFQRKIRQSYFASVSYLDTQVGRLLSALDDLQLANSTIIAFTSDHGWALGEHGEWAKYSNFDVATHVPLIFYVPGRTASLPEAGEKLFPYLDPFDSASQLMEPGRQSMDLVELVSLFPTLAGLAGLQVPPRCPVPSFHVELCREGKNLLKHFRFRDLEEDPYLPGNPRELIAYSQYPRPSDIPQWNSDKPSLKDIKIMGYSIRTIDYRYTVWVGFNPDEFLANFSDIHAGELYFVDSDPLQDHNMYNDSQGGDLFQLLMP | > 0.8 | 0 | 0.121 | 27
3 | HIR-FAB-IDS (SEQ ID NO: 9 and SEQ ID NO: 13) (Fab, Variant of the Fab-iduronate-2-sulfatase fusion) light: EIVLTQSPDFQSVTPKEKVTITCRASQDIGGNLYWYQQKPDQSPKLLIKATSSLDSGVPSRFSGSGSGTDFTLTINSLEAEDAAAYYCLQYSSSPWTFGPGTKVDIKRTVAAPSVFIFPPSDEQLKSGTASVVCLLNNFYPREAKVQWKVDNALQSGNSQESVTEQDSKDSTYSLSSTLTLSKADYEKHKVYACEVTHQGLSSPVTKSFNRGEC heavy: QVQLVESGGGVVQPGRSLRLSCAASGFTFSNYDIHWVRQAPGKGLEWVAWIYPGDGSTKYNEKFKGRFTISRDNSKNTLYLQMNGLRAEDTAVYYCAREWAYWGQGTLVTVSSASTKGPSVFPLAPSSKSTSGGTAALGCLVKDYFPEPVTVSWNSGALTSGVHTFPAVLQSSGLYSLSSVVTVPSSSLGTQTYICNVNHKPSNTKVDKRVEPKSCDKTHLSSSETQANSTTDALNVLLIIVDDLRPSLGCYGDKLVRSPNIDQLASHSLLFQNAFAQQAVCAPSRVSFLTGRRPDTTRLYDFNSYWRVHAGNFSTIPQYFKENGYVTMSVGKVFHPGISSNHTDDSPYSWSFPPYHPSSEKYENTKTCRGPDGELHANLLCPVDVLDVPEGTLPDKQSTEQAIQLLEKMKTSASPFFLAVGYHKPHIPFRYPKEFQKLYPLENITLAPDPEVPDGLPPVAYNPWMDIRQREDVQALNISVPYGPIPVDFQRKIRQSYFASVSYLDTQVGRLLSALDDLQLANSTIIAFTSDHGWALGEHGEWAKYSNFDVATHVPLIFYVPGRTASLPEAGEKLFPYLDPFDSASQLMEPGRQSMDLVELVSLFPTLAGLAGLQVPPRCPVPSFHVELCREGKNLLKHFRFRDLEEDPYLPGNPRELIAYSQYPRPSDIPQWNSDKPSLKDIKIMGYSIRTIDYRYTVWVGFNPDEFLANFSDIHAGELYFVDSDPLQDHNMYNDSQGGDLFQLLMP | > 0.8 | 0 | 0.0604 | 55
4 | HIR-FAB-IDS (SEQ ID NO: 10 and SEQ ID NO: 14) (Fab, Variant of the Fab-iduronate-2-sulfatase fusion) light: DIQLTQSPSSLSASVGDRVTITCRASQDIGGNLYWYQQKPGKAPKVLIYATSSLDSGVPSRFSGSGSGTDFTLTISSLQPEDFATYYCLQYSSSPWTFGQGTKVEIKRTVAAPSVFIFPPSDEQLKSGTASVVCLLNNFYPREAKVQWKVDNALQSGNSQESVTEQDSKDSTYSLSSTLTLSKADYEKHKVYACEVTHQGLSSPVTKSFNRGEC heavy: EVQLVESGGGLVQPGGSLRLSCAASGYDFTNYDIHWVRQAPGKGLEWVGWIYPGDGSTKYNEKFKGRFTFSLDTSKSTAYLQMNSLRAEDTAVYYCAKEWAYWGQGTLVTVSSASTKGPSVFPLAPSSKSTSGGTAALGCLVKDYFPEPVTVSWNSGALTSGVHTFPAVLQSSGLYSLSSVVTVPSSSLGTQTYICNVNHKPSNTKVDKKVEPKSCDKTHLSSSETQANSTTDALNVLLIIVDDLRPSLGCYGDKLVRSPNIDQLASHSLLFQNAFAQQAVCAPSRVSFLTGRRPDTTRLYDFNSYWRVHAGNFSTIPQYFKENGYVTMSVGKVFHPGISSNHTDDSPYSWSFPPYHPSSEKYENTKTCRGPDGELHANLLCPVDVLDVPEGTLPDKQSTEQAIQLLEKMKTSASPFFLAVGYHKPHIPFRYPKEFQKLYPLENITLAPDPEVPDGLPPVAYNPWMDIRQREDVQALNISVPYGPIPVDFQRKIRQSYFASVSYLDTQVGRLLSALDDLQLANSTIIAFTSDHGWALGEHGEWAKYSNFDVATHVPLIFYVPGRTASLPEAGEKLFPYLDPFDSASQLMEPGRQSMDLVELVSLFPTLAGLAGLQVPPRCPVPSFHVELCREGKNLLKHFRFRDLEEDPYLPGNPRELIAYSQYPRPSDIPQWNSDKPSLKDIKIMGYSIRTIDYRYTVWVGFNPDEFLANFSDIHAGELYFVDSDPLQDHNMYNDSQGGDLFQLLMP | > 0.8 | 0 | 0.0351 | 94
5 | HIR-FAB-IDS (SEQ ID NO: 11 and SEQ ID NO: 15) (Fab, Variant of the Fab-iduronate-2-sulfatase fusion) light: EIVLTQSPATLSLSPGERATLSCRASQDIGGNLYWYQQKPGQAPRLLIYATSSLDSGIPARFSGSGSGTDFTLTISSLEPEDFAVYYCLQYSSSPWTFGQGTRLEIKRTVAAPSVFIFPPSDEQLKSGTASVVCLLNNFYPREAKVQWKVDNALQSGNSQESVTEQDSKDSTYSLSSTLTLSKADYEKHKVYACEVTHQGLSSPVTKSFNRGEC heavy: EVQLVESGGGLVQPGRSLRLSCAASGFTFNNYDIHWVRQAPGKGLEWVSWIYPGDGSTKYNEKFKGRFTISRDNAKKSLYLQMNSLRAEDTALYYCAKEWAYWGQGTTVTVSSASTKGPSVFPLAPGSSKSTSGTAALGCLVKDYFPEPVTVSWNSGALTSGVHTFPAVLQSSGLYSLSSVVTVPSSSLGTQTYICNVNHKPSNTKVDKKVEPKSCDKTHLSSSETQANSTTDALNVLLIIVDDLRPSLGCYGDKLVRSPNIDQLASHSLLFQNAFAQQAVCAPSRVSFLTGRRPDTTRLYDFNSYWRVHAGNFSTIPQYFKENGYVTMSVGKVFHPGISSNHTDDSPYSWSFPPYHPSSEKYENTKTCRGPDGELHANLLCPVDVLDVPEGTLPDKQSTEQAIQLLEKMKTSASPFFLAVGYHKPHIPFRYPKEFQKLYPLENITLAPDPEVPDGLPPVAYNPWMDIRQREDVQALNISVPYGPIPVDFQRKIRQSYFASVSYLDTQVGRLLSALDDLQLANSTIIAFTSDHGWALGEHGEWAKYSNFDVATHVPLIFYVPGRTASLPEAGEKLFPYLDPFDSASQLMEPGRQSMDLVELVSLFPTLAGLAGLQVPPRCPVPSFHVELCREGKNLLKHFRFRDLEEDPYLPGNPRELIAYSQYPRPSDIPQWNSDKPSLKDIKIMGYSIRTIDYRYTVWVGFNPDEFLANFSDIHAGELYFVDSDPLQDHNMYNDSQGGDLFQLLMP | > 0.8 | 0 | 0.156 | 21
